Test results as given in patent US20240270826A1 (NATIONAL RESEARCH COUNCIL OF CANADA, published 2024).

Tests used:
[1] = target: T1, SARS-CoV-2 S2 (aa686-1208) (Wuhan) (SARS-CoV-2 Wuhan, UniProt P0DTC2 686-1208); assay: ELISA
T1 construct: NRC; FLAG, 6xHis tags

[2] = target: T2, SARS-CoV-2 S1-NTD (aa16-305) (SARS-CoV-2 Wuhan, UniProt P0DTC2 16-305); assay: ELISA
[3] = target: T3, SARS-CoV-2 S on CHO-S cells (SARS-CoV-2, UniProt P0DTC2 14-1273); assay: flow cytometry, CHO-S cells
T3 construct: whole, on cells

[4] = target: T4, RBD (aa319-541) (Wuhan) (SARS-CoV-2 (Wuhan), UniProt P0DTC2 319-541); assay: SPR, RBD over captured VHH-Fc
[5] = target: RBD_SARS-CoV (aa306-527) (SARS-CoV, UniProt P59594 306-527); assay: SPR, RBD over captured VHH-Fc
[6] = target: T4, RBD (aa319-541) (Wuhan); assay: SPR, RBD over captured VHH-Fc (per Table 11 footnote)
[7] = target: SARS-CoV-2 RBD (aa319-541) (Wuhan), monomeric (SARS-CoV-2 Wuhan, UniProt P0DTC2 319-541); assay: SPR, monomeric RBD over captured VHH-Fc
[8] = target: T1, SARS-CoV-2 S2 (aa686-1208) (Wuhan); assay: SPR; 'nd' read as spanning the three S1 columns, the dashes as the S2 block
[9] = target: T5, ACE2-Fc (human ACE2 aa18-740 fused to human IgG1 Fc) (human, UniProt Q9BYF1 18-740); assay: ELISA
T5 construct: range 18-740

[10] = target: SARS-CoV spike (S) (SARS-CoV, UniProt P59594 14-1195); assay: ELISA
[11] = target: Human SARS-CoV-2_Wuhan S (SmT1) (SARS-CoV-2 (Wuhan), UniProt P0DTC2 14-1208); assay: tandem SPR, immobilized S, orientation 1: VHH alone
[12] = target: T6, SARS-CoV-2 S1 (aa16-685) (Wuhan) (SARS-CoV-2 Wuhan, UniProt P0DTC2 16-685); assay: SPR single-cycle kinetics, VHH over immobilized S1 [cont.]
T6 construct: NRC; FLAG, 6xHis tags

[13] = target: T2, SARS-CoV-2 S1-NTD (aa16-305); assay: ELISA, coated antigen
[14] = target: T7, SARS-CoV-2 spike trimer S (Wuhan, SmT1) (SARS-CoV-2 Wuhan); assay: ELISA, coated antigen, apparent EC50
T7 construct: extracellular domain

[15] = target: T6, SARS-CoV-2 S1 (aa16-685) (Wuhan); assay: ELISA, coated antigen, apparent EC50
[16] = target: T1, SARS-CoV-2 S2 (aa686-1208) (Wuhan); assay: SPR single-cycle kinetics, VHH over immobilized S2 [cont.]

T5 sequence (Q9BYF1 18-740 limits assumed): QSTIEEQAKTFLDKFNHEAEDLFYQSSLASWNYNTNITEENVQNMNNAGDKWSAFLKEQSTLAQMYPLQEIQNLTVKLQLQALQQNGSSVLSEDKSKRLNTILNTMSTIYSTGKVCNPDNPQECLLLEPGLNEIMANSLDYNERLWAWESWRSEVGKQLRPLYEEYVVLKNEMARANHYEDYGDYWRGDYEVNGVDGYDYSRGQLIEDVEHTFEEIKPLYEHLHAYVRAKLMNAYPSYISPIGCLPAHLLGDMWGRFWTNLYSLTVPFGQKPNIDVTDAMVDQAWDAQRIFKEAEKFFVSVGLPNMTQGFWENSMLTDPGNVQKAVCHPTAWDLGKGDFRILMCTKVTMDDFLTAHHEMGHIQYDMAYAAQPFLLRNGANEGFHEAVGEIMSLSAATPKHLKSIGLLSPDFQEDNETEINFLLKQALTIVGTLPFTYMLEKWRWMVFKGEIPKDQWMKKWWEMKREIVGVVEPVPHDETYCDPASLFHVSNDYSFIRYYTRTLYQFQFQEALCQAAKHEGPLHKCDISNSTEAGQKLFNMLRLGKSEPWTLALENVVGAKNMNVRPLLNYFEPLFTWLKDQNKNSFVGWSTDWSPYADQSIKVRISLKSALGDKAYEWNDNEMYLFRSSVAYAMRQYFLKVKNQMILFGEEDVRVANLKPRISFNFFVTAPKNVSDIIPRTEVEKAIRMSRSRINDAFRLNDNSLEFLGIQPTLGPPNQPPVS

B1: NRCoV2-12 VHH-Fc (Fc fusion)
chain: EVQLQQSGGGLVQAGGSLRLSCAASGRTFRNYVMGWFRQAPQAPGKDHEFVAAISWGGTEIYYADSVKGRFTISRDNAKNTVYLQMNSLKPEDTAVYYCAADRGLSYYYTRTTEYNYWGQGTQVTVSS
- binding result [1]: no binding (tested: 13 nM)
- binding result [2]: no binding (tested: 13 nM)
- Bmax [3]: 21800
- EC50 [3]: 0.8 nM
- Kd [4]: 0.0469 nM
- koff [4]: 3.5e-05 s⁻¹
- kon [4]: 747000 M⁻¹ s⁻¹
- Kd [5]: 2.69 nM
- koff [5]: 0.00101 s⁻¹
- kon [5]: 376000 M⁻¹ s⁻¹
- Kd [6]: 0.047 nM

B2: NRCoV2-12 VHH-Fc (Fc fusion)
chain: B1 chain
notes: bivalent
- Kd [7]: 0.0486 nM
- koff [7]: 3.69e-05 s⁻¹
- kon [7]: 760000 M⁻¹ s⁻¹
- binding result [8]: no binding

B3: Human CoV-HKU1 S (other)
chain: AVIGDFNCTNSFINDYNKTIPRISEDVVDVSLGLGTYYVLNRVYLNTTLLFTGYFPKSGANFRDLALKGSIYLSTLWYKPPFLSDFNNGIFSKVKNTKLYVNNTLYSEFSTIVIGSVFVNTSYTIVVQPHNGILEITACQYTMCEYPHTVCKSKGSIRNESWHIDSSEPLCLFKKNFTYNVSADWLYFHFYQERGVFYAYYADVGMPTTFLFSLYLGTILSHYYVMPLTCNAISSNTDNETLEYWVTPLSRRQYLLNFDEHGVITNAVDCSSSFLSEIQCKTQSFAPNTGVYDLSGFTVKPVATVYRRIPNLPDCDIDNWLNNVSVPSPLNWERRIFSNCNFNLSTLLRLVHVDSFSCNNLDKSKIFGSCFNSITVDKFAIPNRRRDDLQLGSSGFLQSSNYKIDISSSSCQLYYSLPLVNVTINNFNPSSWNRRYGFGSFNLSSYDVVYSDHCFSVNSDFCPCADPSVVNSCAKSKPPSAICPAGTKYRHCDLDTTLYVKNWCRCSCLPDPISTYSPNTCPQKKVVVGIGEHCPGLGINEEKCGTQLNHSSCFCSPDAFLGWSFDSCISNNRCNIFSNFIFNGINSGTTCSNDLLYSNTEISTGVCVNYDLYGITGQGIFKEVSAAYYNNWQNLLYDSNGNIIGFKDFLTNKTYTILPCYSGRVSAAFYQNSSSPALLYRNLKCSYVLNNISFISQPFYFDSYLGCVLNAVNLTSYSVSSCDLRMGSGFCIDYALPSSRRKRRGISSPYRFVTFEPFNVSFVNDSVETVGGLFEIQIPTNFTIAGHEEFIQTSSPKVTIDCSAFVCSNYAACHDLLSEYGTFCDNINSILNEVNDLLDITQLQVANALMQGVTLSSNLNTNLHSDVDNIDFKSLLGCLGSQCGSSSRSLLEDLLFNKVKLSDVGFVEAYNNCTGGSEIRDLLCVQSFNGIKVLPPILSETQISGYTTAATVAAMFPPWSAAAGVPFSLNVQYRINGLGVTMDVLNKNQKLIANAFNKALLSIQNGFTATNSALAKIQSVVNANAQALNSLLQQLFNKFGAISSSLQEILSRLDNLEAQVQIDRLINGRLTALNAYVSQQLSDITLIKAGASRAIEKVNECVKSQSPRINFCGNGNHILSLVQNAPYGLLFIHFSYKPTSFKTVLVSPGLCLSGDRGIAPKQGYFIKQNDSWMFTGSSYYYPEPISDKNVVFMNSCSVNFTKAPFIYLNNSIPNLSDFEAELSLWFKNHTSIAPNLTFNSHINATFLDLYYEMNVIQESIKSLNSSFINLKEIGTYEMYVKWP
notes: Sino Biological; 6xHis
- binding result [9]: no binding (tested: 13 nM)

B4: NRCoV2-MRed05 VHH-Fc (Fc fusion)
chain: EVQLVESGGGLVQPGGSLRLSCAASGFTLDYYAIGWFRQAPGKEREGVSCISSSDGSTLYADSVKGRFTISRDNAKNTVYLQMNSLKPEDTAVYYCATGPQAYYSGSYYFQCPQAGMDYWGKGTQVTVSS
- binding result [10]: no binding (tested: 13 nM)
- binding result [1]: no binding (tested: 13 nM)
- binding result [2]: no binding (tested: 13 nM)
- Bmax [3]: 17300
- EC50 [3]: 0.5 nM
- Kd [4]: 0.905 nM
- koff [4]: 0.000509 s⁻¹
- kon [4]: 562000 M⁻¹ s⁻¹
- binding result [5]: no binding
- Kd [6]: 0.91 nM

B5: NRCoV2-S2A4 VHH (VHH)
VHH: QVQLVQSGGGLVQAGGSLRLSCAVSGSPFRSNVMEWYRQAPGKQRELVASISTGGSRTYTDSVKGRFTISRDNAKNEAFLQMNSLKPEDTAVYYCHAAARDSHGIYLLDTWGQGTQVTVSS
- End 1st inj (RU) [11]: 11.6 RU
- binding result [12]: no binding (tested: 40 nM)

B6: NRCoV2-02 VHH-Fc (Fc fusion)
chain: EVQLVESGGGLVQAGGSLRLSCAASGFTFSNYAMNWVRQAPGKGLEWVSGISGRGDDTRYADSVKGRFTISRDNAKNTLFLQMRSLRPEDTGVYRCTKGPDLYYFGSGYSDRGQGTQVTVSS
notes: bivalent
- binding result [13]: no binding
- EC50 [14]: 0.1 nM
- EC50 [15]: 0.11 nM

B7: NRCoV2-07 VHH (VHH)
VHH: QVQLVQSGGGLVQPGGSLRLSCAASGVTLDYYAIGWFRQAPGKEREAVSCISSNGRRNHYVASVRGRFTISRDNAKSTVYLQMNSLKPEDTAVYYCAAVQDVHGDNYYCTSPNEYNVWGQGTQVTVSS
- End 1st inj (RU) [11]: 19.1 RU
- binding result [16]: no binding (tested: 20 nM)
